Test results: PMC11444262, “Direct targeting of host microtubule and actin cytoskeletons by a chlamydial pathogenic effector protein” (Journal of Cell Science, 2024)

Target: Taxol-stabilized microtubules (UniProt P02550 1-451)
Test: co-sedimentation; equilibrium binding of 100 nM GST–CPn0572^595-755 with increasing amounts of Taxol-stabilized MTs; apparent Kd
Settings: both partners purified

Sequence of Taxol-stabilized microtubules (P02550 whole entry, chain 1 of 2): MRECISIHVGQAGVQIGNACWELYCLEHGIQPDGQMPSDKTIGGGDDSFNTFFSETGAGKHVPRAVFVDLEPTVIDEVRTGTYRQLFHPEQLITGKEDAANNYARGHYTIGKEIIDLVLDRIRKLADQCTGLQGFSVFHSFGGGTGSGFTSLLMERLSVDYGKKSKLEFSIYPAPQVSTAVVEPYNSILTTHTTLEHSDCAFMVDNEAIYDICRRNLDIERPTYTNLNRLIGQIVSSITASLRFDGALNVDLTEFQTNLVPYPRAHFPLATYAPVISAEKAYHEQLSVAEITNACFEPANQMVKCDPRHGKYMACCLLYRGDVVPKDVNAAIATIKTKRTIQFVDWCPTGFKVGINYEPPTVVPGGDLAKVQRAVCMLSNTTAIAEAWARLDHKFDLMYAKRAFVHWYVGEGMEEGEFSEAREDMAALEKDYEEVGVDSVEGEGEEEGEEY
Sequence of Taxol-stabilized microtubules (P02554 whole entry, chain 2 of 2, further chain): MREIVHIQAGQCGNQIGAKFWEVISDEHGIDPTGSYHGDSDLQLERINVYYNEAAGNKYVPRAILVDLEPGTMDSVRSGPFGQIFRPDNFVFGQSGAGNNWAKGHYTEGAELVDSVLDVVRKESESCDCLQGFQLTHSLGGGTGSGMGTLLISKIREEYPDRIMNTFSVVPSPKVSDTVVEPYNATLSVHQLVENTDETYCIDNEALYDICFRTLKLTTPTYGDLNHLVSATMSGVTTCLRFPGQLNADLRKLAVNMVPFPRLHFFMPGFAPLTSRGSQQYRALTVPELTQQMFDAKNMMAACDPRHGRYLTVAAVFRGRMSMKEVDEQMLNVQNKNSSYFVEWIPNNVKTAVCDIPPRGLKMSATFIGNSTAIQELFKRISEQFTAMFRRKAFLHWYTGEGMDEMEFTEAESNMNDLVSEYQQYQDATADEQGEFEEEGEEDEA

B1: GST–CPn0572^595-755 (domain or fragment, Chlamydia pneumoniae (Cpn GiD), UniProt Q9Z7Y1 595-755, looked up)
chain: VATTITPQARTASTSTTSIGTGTESTSTTSTGTGTGSVSTQSTGVGTPTTTTRSTGTSATTTTSSASTQTPQAPLPSGTRHVATISLVRNAAGRSIVLQQGGRSQSFPIPPSGTGTQNMGAQLWAAASQVASTLGQVVNQAATAGSQPSSRRSSPTSPRRK
notes: Cloned into a modified pGEX-5X-1 in which the factor Xa site is replaced by a TEV protease site; source: E. coli Rosetta (DE3), purified (glutathione agarose beads)
  Kd: 70 nM
